Experimental data published in article PMC9283937.
Values joined by “and” are separate entries in the source; they are usually repeats but may differ in a detail not shown here. Equal entries are not always repeated.

Legend:
[1] = biological target: LarE from Thermotoga maritima, C-terminal His6-tagged (Thermotoga maritima); experiment: SEC-MALS; Superdex 200 Increase 10/300 GL, 100 mM Tris-HCl pH 7.2, 300 mM NaCl, 0.5 ml/min; miniDAWN TREOS detector
[2] = biological target: LarE from Thermotoga maritima, C-terminal His6-tagged (Thermotoga maritima); experiment: native MS; nondenaturing nano-ESI-MS (Q Exactive UHMR) under anoxic atmosphere; cluster-assembled His6-tagged LarETm after anaerobic incubation with IscSEc and L-cysteine; CID 15 eV

- stoichiometry N [1]: 2
- stoichiometry N [2]: 2 and 4 and 6
Substance: LarE from Thermotoga maritima, C-terminal His6-tagged (enzyme)
